# Source: IntAct's records for PubMed 17442384
# B1: Multivesicular body sorting factor 12 (Saccharomyces cerevisiae), P42939 (parent)
# chain: MNNNVEELLRRIPLYNKYGKDFPQETVTRFQMPEFKLPALQPTRDLLCPWYEECDNITKVCQLHDSSNKKFDQWYKEQYLSKKPPGIVGNTLLSPSRKDNS
# partner: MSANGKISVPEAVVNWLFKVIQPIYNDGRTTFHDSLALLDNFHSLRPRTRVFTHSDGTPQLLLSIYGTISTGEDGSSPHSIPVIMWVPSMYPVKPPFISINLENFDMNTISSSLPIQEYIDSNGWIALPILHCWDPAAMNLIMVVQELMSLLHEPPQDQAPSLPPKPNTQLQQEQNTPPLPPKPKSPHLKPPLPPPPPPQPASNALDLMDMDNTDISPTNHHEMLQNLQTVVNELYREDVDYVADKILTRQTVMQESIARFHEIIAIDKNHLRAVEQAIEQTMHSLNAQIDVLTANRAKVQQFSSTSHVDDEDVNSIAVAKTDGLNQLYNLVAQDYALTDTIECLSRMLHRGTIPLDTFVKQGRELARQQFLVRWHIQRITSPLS
# B2: Suppressor protein STP22 of temperature-sensitive alpha-factor receptor and arginine permease (Saccharomyces cerevisiae), P25604 (parent)
# chain: B1 partner
# partner: B1 chain
# B3: Multivesicular body sorting factor 12 (Saccharomyces cerevisiae), P42939 (parent)
# chain: B1 chain
# partner: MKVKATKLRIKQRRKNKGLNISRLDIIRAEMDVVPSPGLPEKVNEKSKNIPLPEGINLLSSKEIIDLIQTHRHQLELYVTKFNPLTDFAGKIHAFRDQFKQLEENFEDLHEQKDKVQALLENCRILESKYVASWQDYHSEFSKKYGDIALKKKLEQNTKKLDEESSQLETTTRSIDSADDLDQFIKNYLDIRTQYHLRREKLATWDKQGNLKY
# B4: Suppressor protein STP22 of temperature-sensitive alpha-factor receptor and arginine permease (Saccharomyces cerevisiae), P25604 (parent)
# chain: B1 partner
# partner: B3 partner
# Variants of: B1
# Settings: with stp22_yeast STP22, P25604
row,effect of a mutation on the interaction,Variant
1,decreasing interaction,MNNNVEELLRRIPLYNKYGKDFPQETVTRFQMPEFKLPALQPTRDLDCPWYEECDNDTKVCQLHDSSNKKFDQWYKEQYLSKKPPGIVGNTLLSPSRKDNS

# Variants of: B2
# Settings: with mvb12_yeast MVB12, P42939
row,effect of a mutation on the interaction,Variant
1,decreasing interaction,MSANGKISVPEAVVNWLFKVIQPIYNDGRTTFHDSLALLDNFHSLRPRTRVFTHSDGTPQLLLSIYGTISTGEDGSSPHSIPVIMWVPSMYPVKPPFISINLENFDMNTISSSLPIQEYIDSNGWIALPILHCWDPAAMNLIMVVQELMSLLHEPPQDQAPSLPPKPNTQLQQEQNTPPLPPKPKSPHLKPPLPPPPPPQPASNALDLMDMDNTDISPTNHHEMLQNLQTVVNELYREDVDYVADKILTRQTVDQESIARFHEIIAIDKNHLRAVEQAIEQTMHSLNAQIDVLTANRAKVQQFSSTSHVDDEDVNSIAVAKTDGLNQLYNLVAQDYALTDTIECLSRMLHRGTIPLDTFVKQGRELARQQFLVRWHIQRITSPLS [M254D]

# Variants of: B3
# Settings: with srn2_yeast SRN2, Q99176
row,effect of a mutation on the interaction,Variant
1,decreasing interaction,MNNNVEELLRRIPLYNKYGKDFPQETVTRFQMPEFKLPALQPTRDLDCPWYEECDNDTKVCQLHDSSNKKFDQWYKEQYLSKKPPGIVGNTLLSPSRKDNS

# Variants of: B4
# Settings: with srn2_yeast SRN2, Q99176
row,effect of a mutation on the interaction,Variant
1,decreasing interaction,MSANGKISVPEAVVNWLFKVIQPIYNDGRTTFHDSLALLDNFHSLRPRTRVFTHSDGTPQLLLSIYGTISTGEDGSSPHSIPVIMWVPSMYPVKPPFISINLENFDMNTISSSLPIQEYIDSNGWIALPILHCWDPAAMNLIMVVQELMSLLHEPPQDQAPSLPPKPNTQLQQEQNTPPLPPKPKSPHLKPPLPPPPPPQPASNALDLMDMDNTDISPTNHHEMLQNLQTVVNELYREDVDYVADKILTRQTVDQESIARFHEIIAIDKNHLRAVEQAIEQTMHSLNAQIDVLTANRAKVQQFSSTSHVDDEDVNSIAVAKTDGLNQLYNLVAQDYALTDTIECLSRMLHRGTIPLDTFVKQGRELARQQFLVRWHIQRITSPLS [M254D]
